Measured values: the supplement of paper PMC7877785
± gives the uncertainty stated by the source.

Assay: self-splicing fitness, log relative to wild type (ln ratio); higher = more splicing; Tetrahymena group I intron in knt gene, E. coli kanamycin selection, DiMSum; sequences stand for … in CUCUCU…GGAGGGAAAAGUUAUCAGGCAUGCACCUGGUAGCUAGUCUUUAAACCAAUAGAUUGCAUCGGUUUAAAAGGCAAGACCGUCAAAUUGCGGGAAAGGGGUCAACAGCCGUUCAGUACCAAGUCUCAGGGGAAACUUUGAGAUGGCCUUGCAAAGGGUAUGGUAAUAAGCUGACGGACAUGGUCCUAACCACGCAGCCAAGUCCUAAGUCAACAGAUCUUCUGUUGAUAUGGAUGCAGUUCACAGACUAAAUGUCGGUCGGGGAAGAUGUAUUCUUCUCAUAAGAUAUAGUCGGACCUCUCCUUAAUGGGAGCUAGCGGAUGAAGUGAUGCAACACUGGAGCCGCUGGGAACUAAUUUGUAUGCGAAAGUAUAUUGAUUAGUUUUGGAGUACUCGUGGUCG
Method in brief: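 Colonies from six replicate transformations of E. coli BL21(DE3) were pooled and amplicon-sequenced on an Illumina HiSeq 2500. The library placed an intron with all eight P1ex-region nucleotides randomised inside the knt kanamycin-resistance gene on pET-22b(+), and cells grew overnight at 37°C or 30°C on LB agar with or without 25 μg/mL kanamycin (plus 100 μg/mL carbenicillin, 50 μM IPTG, 0.2% rhamnose). Fitness is the DiMSum error-weighted combination of wild-type-normalised replicate fold changes, kanamycin versus none.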

| Sequence | self-splicing fitness (ln) (30 °C) | self-splicing fitness (ln) (37 °C) |
| --- | --- | --- |
| GUGCAGCAAUAUUACGGUAA | -1.5 ± 0.18 | 0.218 ± 0.14 |
| GUGCAGCAAUAUUACGGUAG | -1.05 ± 0.057 | -0.428 ± 0.074 |
| GUGCAGCAAUAUUACGGUGU | -3.08 ± 0.11 | -1.74 ± 0.12 |
| GUGCAGCAAUAUUACGUAAU | -0.833 ± 0.06 | 0.129 ± 0.079 |
| GUGCAGCAAUAUUACGUAGA | -2.02 ± 0.087 | -0.647 ± 0.11 |
| GUGCAGCAAUAUUACGUCAC |  | -2.14 ± 0.21 |
| GUGGAGCAAUAUUACGACGU | -1.15 ± 0.14 | 0.0174 ± 0.16 |
| GUGGAGCAAUAUUACGAUCA | -2.19 ± 0.49 | -0.101 ± 0.2 |
| GUGGAGCAAUAUUACGAUCU | -2.68 ± 0.15 | -2.6 ± 0.22 |
| GUGGAGCAAUAUUACGCACA | -0.729 ± 0.22 | -0.814 ± 0.33 |
| GUGGAGCAAUAUUACGCCGA | -3.41 ± 0.43 | -1.25 ± 0.28 |
| GUGGAGCAAUAUUACGCGUC | -2.82 ± 0.35 | -1.76 ± 0.47 |
| GUGGAGCAAUAUUACGGAAC |  | -0.66 ± 0.45 |
| GUGGAGCAAUAUUACGGACC | -1.56 ± 0.38 |  |
| GUGGAGCAAUAUUACGGAGU | -3.56 ± 0.31 | -2.25 ± 0.29 |
| GUGGAGCAAUAUUACGGCGC | -1.42 ± 0.27 | -0.0496 ± 0.26 |
| GUGGAGCAAUAUUACGGGGC | -3.48 ± 0.48 | -1.93 ± 0.31 |
| GUGGAGCAAUAUUACGUGCG | -2.23 ± 0.15 | -2.9 ± 0.29 |
| GUGGAGCAAUAUUACGUGCU | -3.68 ± 0.2 | -3.09 ± 0.4 |

| Sequence | self-splicing fitness (ln) (30 °C) | self-splicing fitness (ln) (37 °C) |
| --- | --- | --- |
| GUGGAGCAAUAUUACGUGGG | -2.28 ± 0.13 | -2.7 ± 0.33 |
| GUGGAGCAAUAUUACGUUAG | -3.94 ± 0.24 | -2.35 ± 0.2 |
| GUGUAGCAAUAUUACGAAAG | -2.33 ± 0.24 | -1.4 ± 0.42 |
| GUGUAGCAAUAUUACGAAGC | -2.07 ± 0.17 | -0.684 ± 0.23 |
| GUGUAGCAAUAUUACGAGGA | -2.9 ± 0.44 |  |
| GUGUAGCAAUAUUACGCCUA | -1.92 ± 0.26 | -0.813 ± 0.24 |
| GUGUAGCAAUAUUACGCGAC | -1.33 ± 0.45 | -1.02 ± 0.27 |
| GUGUAGCAAUAUUACGCUCG | -1 ± 0.18 | -0.53 ± 0.21 |
| GUGUAGCAAUAUUACGCUGC | -3.26 ± 0.27 | -1.08 ± 0.23 |
| GUGUAGCAAUAUUACGCUUU | -3.2 ± 0.21 | -2.54 ± 0.22 |
| GUGUAGCAAUAUUACGGCCC | 0.713 ± 0.23 | 0.583 ± 0.3 |
| GUGUAGCAAUAUUACGGCUG | -3.23 ± 0.23 | -1.28 ± 0.25 |
| GUGUAGCAAUAUUACGGGCG | -2.61 ± 0.27 | -1.21 ± 0.18 |
| GUGUAGCAAUAUUACGGUGC | -2.8 ± 0.21 | -2.18 ± 0.18 |
| GUGUAGCAAUAUUACGUAAG | -1.56 ± 0.1 | -1.57 ± 0.16 |
| GUGUAGCAAUAUUACGUCGA | -1.11 ± 0.14 | -0.586 ± 0.12 |
| GUGUAGCAAUAUUACGUCGG | -2.7 ± 0.24 | -2.73 ± 0.33 |
| GUGUAGCAAUAUUACGUGUU | -3.14 ± 0.17 | -1.58 ± 0.12 |
| GUGUAGCAAUAUUACGUUCU | -0.842 ± 0.09 | 0.00858 ± 0.11 |
